Data published in the Immune Epitope Database (IEDB).
Each block holds one sequence with its values, some of them ahead of it.

Columns and labels:
Assay in all cases: IEDB peptide-MHC binding, purified MHC/competitive/radioactivity; filed as Kd, often an IC50 or EC50 that approximates it; ≥ and ≤ were set here for values at or beyond the usual limits of such assays
HLA-A*03:01 = molecular target: HLA-A*03:01
HLA-A*31:01 = molecular target: HLA-A*31:01
HLA-A*68:01 = molecular target: HLA-A*68:01
HLA-A*33:01 = molecular target: HLA-A*33:01
HLA-A*11:01 = molecular target: HLA-A*11:01
[1] = source organism: Dengue virus 2 Jamaica/1409/1983
[2] = source organism: Vaccinia virus WR
[3] = source organism: Dengue virus 3 Martinique/1243/1999
[4] = source organism: Mammarenavirus brazilense
[5] = source organism: SARS coronavirus Tor2
[6] = source organism: Dengue virus 1 Brazil/97-11/1997
[7] = source organism: Lassa virus Josiah
[8] = source organism: Dengue virus 4 Philippines/H241/1956
[9] = source organism: Dengue virus 2 Peru/IQT2913/1996
[10] = source organism: Dengue virus 1 Singapore/S275/1990

Sequence: WSYYCGGLK
Kd (HLA-A*03:01; [1]): 1.28 nM

Sequence: LSCAVHLIIY
Kd (HLA-A*03:01; [2]): 10600 nM
Kd (HLA-A*31:01; [2]): 5370 nM
Kd (HLA-A*68:01; [2]): 361 nM
Kd (HLA-A*33:01; [2]): 3830 nM
Kd (HLA-A*11:01; [2]): ≥ 61400 nM

Sequence: EVRIPVDLVK
Kd (HLA-A*03:01; [2]): ≥ 64800 nM
Kd (HLA-A*31:01; [2]): 9020 nM
Kd (HLA-A*68:01; [2]): 656 nM
Kd (HLA-A*33:01; [2]): 17000 nM
Kd (HLA-A*11:01; [2]): 1660 nM

Sequence: NMINKLYGY
Kd (HLA-A*03:01; [2]): 2560 nM
Kd (HLA-A*31:01; [2]): ≥ 37800 nM
Kd (HLA-A*68:01; [2]): ≥ 31900 nM
Kd (HLA-A*33:01; [2]): 14300 nM
Kd (HLA-A*11:01; [2]): 18600 nM

Sequence: TAGPWHLGK
Kd (HLA-A*11:01; [1]): 66.1 nM

Sequence: IALGLMALK
Kd (HLA-A*11:01; [3]): 42.7 nM

Sequence: EIINDKGKQY
Kd (HLA-A*03:01; [2]): ≥ 70100 nM
Kd (HLA-A*31:01; [2]): 12800 nM
Kd (HLA-A*68:01; [2]): 3990 nM
Kd (HLA-A*33:01; [2]): ≥ 70000 nM
Kd (HLA-A*11:01; [2]): ≥ 69800 nM

Sequence: VFKGFSDKVR
Kd (HLA-A*03:01; [2]): ≥ 70100 nM
Kd (HLA-A*31:01; [2]): 201 nM
Kd (HLA-A*68:01; [2]): ≥ 26800 nM
Kd (HLA-A*33:01; [2]): 925 nM
Kd (HLA-A*11:01; [2]): 2640 nM

Sequence: AQRRGRVGR
Kd (HLA-A*31:01; [3]): 13.2 nM

Sequence: LLLRKLTSK
Kd (HLA-A*03:01; [1]): 28.8 nM

Sequence: DFWRLYNSLK
Kd (HLA-A*03:01; [2]): 1650 nM
Kd (HLA-A*31:01; [2]): 2570 nM
Kd (HLA-A*68:01; [2]): 730 nM
Kd (HLA-A*33:01; [2]): 3.13 nM
Kd (HLA-A*11:01; [2]): 1010 nM

Sequence: TSLAIKNYY
Kd (HLA-A*03:01; [2]): 18200 nM
Kd (HLA-A*31:01; [2]): 2260 nM
Kd (HLA-A*68:01; [2]): 1670 nM
Kd (HLA-A*33:01; [2]): ≥ 29300 nM
Kd (HLA-A*11:01; [2]): 294 nM

Sequence: TALAKCNLDH
Kd (HLA-A*03:01; [4]): ≥ 70000 nM
Kd (HLA-A*31:01; [4]): 878 nM
Kd (HLA-A*68:01; [4]): ≥ 35100 nM
Kd (HLA-A*33:01; [4]): ≥ 46900 nM
Kd (HLA-A*11:01; [4]): ≥ 69700 nM

Sequence: IILANERYR
Kd (HLA-A*03:01; [2]): 9590 nM
Kd (HLA-A*31:01; [2]): 106 nM
Kd (HLA-A*68:01; [2]): 92.8 nM
Kd (HLA-A*33:01; [2]): 2770 nM
Kd (HLA-A*11:01; [2]): 6670 nM

Sequence: TTTSTALGK
Kd (HLA-A*03:01; [5]): 718 nM
Kd (HLA-A*31:01; [5]): 1080 nM
Kd (HLA-A*68:01; [5]): 28 nM
Kd (HLA-A*33:01; [5]): ≥ 77700 nM
Kd (HLA-A*11:01; [5]): 31.8 nM

Sequence: CSRMLDTSEK
Kd (HLA-A*03:01; [2]): 1010 nM
Kd (HLA-A*31:01; [2]): 1560 nM
Kd (HLA-A*68:01; [2]): 7700 nM
Kd (HLA-A*33:01; [2]): ≥ 70000 nM
Kd (HLA-A*11:01; [2]): 1610 nM

Sequence: KSAAIDGEYR
Kd (HLA-A*31:01; [6]): 4.04 nM
Kd (HLA-A*68:01; [6]): 134 nM

Sequence: GSCVTTMAK
Kd (HLA-A*11:01; [1]): 115 nM

Sequence: DTSASEIKDR
Kd (HLA-A*03:01; [2]): 14800 nM
Kd (HLA-A*31:01; [2]): 7970 nM
Kd (HLA-A*68:01; [2]): 17.6 nM
Kd (HLA-A*33:01; [2]): 835 nM
Kd (HLA-A*11:01; [2]): 1130 nM

Sequence: LLKILDNLR
Kd (HLA-A*03:01; [2]): 19600 nM
Kd (HLA-A*31:01; [2]): 20.9 nM
Kd (HLA-A*68:01; [2]): 700 nM
Kd (HLA-A*33:01; [2]): 86 nM
Kd (HLA-A*11:01; [2]): 629 nM

Sequence: SIHLTKTDK
Kd (HLA-A*03:01; [2]): 6.74 nM
Kd (HLA-A*31:01; [2]): 9440 nM
Kd (HLA-A*68:01; [2]): 140 nM
Kd (HLA-A*33:01; [2]): ≥ 48300 nM
Kd (HLA-A*11:01; [2]): 9.38 nM

Sequence: LTYSQLMTLK
Kd (HLA-A*03:01; [7]): 29.7 nM
Kd (HLA-A*31:01; [7]): 1960 nM
Kd (HLA-A*68:01; [7]): 5 nM
Kd (HLA-A*33:01; [7]): 10700 nM
Kd (HLA-A*11:01; [7]): 11.5 nM

Sequence: GIFTTNIWLK
Kd (HLA-A*03:01; [6]): 14.3 nM
Kd (HLA-A*11:01; [6]): 12.5 nM

Sequence: NVTLFYCDER
Kd (HLA-A*03:01; [2]): 6080 nM
Kd (HLA-A*31:01; [2]): 777 nM
Kd (HLA-A*68:01; [2]): 8.23 nM
Kd (HLA-A*33:01; [2]): 818 nM
Kd (HLA-A*11:01; [2]): 2830 nM

Sequence: TAKEVALLR
Kd (HLA-A*68:01; [8]): 75.1 nM
Kd (HLA-A*33:01; [8]): 17.3 nM

Sequence: STSAADIKR
Kd (HLA-A*03:01; [2]): ≥ 30400 nM
Kd (HLA-A*31:01; [2]): 1300 nM
Kd (HLA-A*68:01; [2]): 5.19 nM
Kd (HLA-A*33:01; [2]): ≥ 22100 nM
Kd (HLA-A*11:01; [2]): 13.2 nM

Sequence: HTWQKQTQR
Kd (HLA-A*31:01; [3]): 2.88 nM
Kd (HLA-A*33:01; [3]): 57.8 nM

Sequence: MIRPQPMEHK
Kd (HLA-A*03:01; [6]): 8.89 nM

Sequence: ALNDMGKVRK
Kd (HLA-A*03:01; [1]): 36.5 nM

Sequence: RMLINRFTMK
Kd (HLA-A*03:01; [1]): 6.19 nM
Kd (HLA-A*11:01; [1]): 334 nM

Sequence: ALNDTWKIEK
Kd (HLA-A*03:01; [9]): 60.3 nM
Kd (HLA-A*11:01; [9]): 398 nM

Sequence: SYVMCTGSFK
Kd (HLA-A*03:01; [6]): 111 nM
Kd (HLA-A*33:01; [6]): 17.7 nM

Sequence: MTIIGRRLQR
Kd (HLA-A*31:01; [8]): 15.1 nM
Kd (HLA-A*68:01; [8]): 10.5 nM
Kd (HLA-A*33:01; [8]): 32.7 nM

Sequence: ESNILDIDLR
Kd (HLA-A*68:01; [1]): 160 nM

Sequence: SIMKNTTNTR
Kd (HLA-A*31:01; [1]): 672 nM
Kd (HLA-A*68:01; [1]): 139 nM

Sequence: SQLAKRFSK
Kd (HLA-A*11:01; [6]): 49.9 nM

Sequence: TTILTPMLR
Kd (HLA-A*68:01; [8]): 10.9 nM
Kd (HLA-A*33:01; [8]): 36.4 nM
Kd (HLA-A*11:01; [8]): 387 nM

Sequence: ITWIGMNSR
Kd (HLA-A*31:01; [1]): 11.2 nM
Kd (HLA-A*33:01; [1]): 35.4 nM

Sequence: ISNMLNIMNR
Kd (HLA-A*31:01; [10]): ≥ 38100 nM
Kd (HLA-A*33:01; [10]): 157 nM

Sequence: TIFAGHLKCR
Kd (HLA-A*68:01; [6]): 16.9 nM

Sequence: GQGQNSADPK
Kd (HLA-A*68:01; [5]): ≥ 70200 nM
Kd (HLA-A*33:01; [5]): ≥ 70000 nM

Sequence: LVTPSMTMR
Kd (HLA-A*31:01; [3]): 343 nM

Sequence: MTATPPGSR
Kd (HLA-A*68:01; [1]): 18.4 nM

Sequence: TVGPWHLGK
Kd (HLA-A*03:01; [8]): 17 nM
Kd (HLA-A*11:01; [8]): 24.5 nM

Kd (HLA-A*03:01; source organism: Homo sapiens): 125 nM
Kd (HLA-A*11:01; source organism: Homo sapiens): 90.6 nM
Sequence: VVGAGGVGK

Sequence: EVYTQLCDHR
Kd (HLA-A*68:01; [3]): 14.3 nM

Sequence: AMCTNTFVLK
Kd (HLA-A*03:01; [3]): 20.3 nM
Kd (HLA-A*11:01; [3]): 20.9 nM

Sequence: LVEYGTVVNK
Kd (HLA-A*68:01; [2]): 212 nM

Sequence: STQSVLCVKK
Kd (HLA-A*03:01; [2]): 118 nM
Kd (HLA-A*31:01; [2]): 180 nM
Kd (HLA-A*68:01; [2]): 3.52 nM
Kd (HLA-A*11:01; [2]): 0.157 nM

Sequence: MALFQPANK
Kd (HLA-A*11:01; source organism: Mammarenavirus juninense): 48 nM
